Target: clathrin N-terminal domain (NTD) (UniProt Q00610)
Test: fluorescence polarisation + ITC

Chain of UniProt Q00610 (Q00610 1-364): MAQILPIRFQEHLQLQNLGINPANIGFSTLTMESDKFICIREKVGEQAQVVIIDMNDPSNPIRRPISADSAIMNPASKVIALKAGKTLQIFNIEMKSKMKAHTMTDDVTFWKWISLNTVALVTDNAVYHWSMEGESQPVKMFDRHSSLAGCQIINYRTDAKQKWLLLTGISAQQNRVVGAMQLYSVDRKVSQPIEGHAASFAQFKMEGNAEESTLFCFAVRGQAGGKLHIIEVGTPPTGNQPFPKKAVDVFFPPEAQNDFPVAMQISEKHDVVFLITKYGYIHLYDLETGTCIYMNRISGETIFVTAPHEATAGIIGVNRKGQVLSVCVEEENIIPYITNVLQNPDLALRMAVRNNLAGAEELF

fold increase in affinity against the wild-type peptide: 20 fold
Substance: HURP_(832-846) phosphorylated peptide (pS839) (from UniProt Q15398 832-846)

From doi:10.1101/2022.06.08.495335
